Results published in patent publication US20180037644A1 (Pfizer, published 2018).

T1: human IL-33 (mm2) (human, UniProt O95760 112-270)
T1 chain: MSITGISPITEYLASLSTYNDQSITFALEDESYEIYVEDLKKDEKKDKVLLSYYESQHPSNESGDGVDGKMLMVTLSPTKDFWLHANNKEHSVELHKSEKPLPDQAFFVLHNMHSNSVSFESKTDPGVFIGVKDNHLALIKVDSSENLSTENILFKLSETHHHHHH

T2: cynomolgus monkey IL-33 (cys mut) (cynomolgus monkey)
T2 chain: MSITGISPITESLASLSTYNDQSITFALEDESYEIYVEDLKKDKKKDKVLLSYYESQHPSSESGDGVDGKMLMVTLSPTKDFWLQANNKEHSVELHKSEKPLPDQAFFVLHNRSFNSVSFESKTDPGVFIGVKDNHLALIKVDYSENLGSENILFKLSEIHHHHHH

B1: IL33-158 (antibody, human IgG1, kappa)
heavy: EVQLVESGGGLVQPGGSLRLSCAASGFTFSSYWMYWVRQAPGKGLEWVAAITPNAGEDYYPESVKGRFTISRDNAKNSLYLQMNSLRAEDTAVYYCARGHYYYTSYSLGYWGQGTLVTVSSASTKGPSVFPLAPSSKSTSGGTAALGCLVKDYFPEPVTVSWNSGALTSGVHTFPAVLQSSGLYSLSSVVTVPSSSLGTQTYICNVNHKPSNTKVDKKVEPKSCDKTHTCPPCPAPEAAGAPSVFLFPPKPKDTLMISRTPEVTCVVVDVSHEDPEVKFNWYVDGVEVHNAKTKPREEQYNSTYRVVSVLTVLHQDWLNGKEYKCKVSNKALPAPIEKTISKAKGQPREPQVYTLPPSREEMTKNQVSLTCLVKGFYPSDIAVEWESNGQPENNYKTTPPVLDSDGSFFLYSKLTVDKSRWQQGNVFSCSVMHEALHNHYTQKSLSLSPGK
light: DIQMTQSPSSLSASVGDRVTITCKASQNINKHLDWYQQKPGKAPKLLIYFTNNLQTGVPSRFSGSGSGTDFTLTISSLQPEDFATYYCFQYNQGWTFGGGTKVEIKRTVAAPSVFIFPPSDEQLKSGTASVVCLLNNFYPREAKVQWKVDNALQSGNSQESVTEQDSKDSTYSLSSTLTLSKADYEKHKVYACEVTHQGLSSPVTKSFNRGEC
B2: IL33-167 (antibody, human IgG1, kappa)
heavy: EVQLVESGGGLVQPGGSLRLSCAASGFTFSSYWMYWVRQAPGKGLEWVASITPNAGEDYYPDSVKGRFTISRDNAKNSLYLQMNSLRAEDTAVYYCARGHYYYTSYSLGYWGQGTLVTVSSASTKGPSVFPLAPSSKSTSGGTAALGCLVKDYFPEPVTVSWNSGALTSGVHTFPAVLQSSGLYSLSSVVTVPSSSLGTQTYICNVNHKPSNTKVDKKVEPKSCDKTHTCPPCPAPEAAGAPSVFLFPPKPKDTLMISRTPEVTCVVVDVSHEDPEVKFNWYVDGVEVHNAKTKPREEQYNSTYRVVSVLTVLHQDWLNGKEYKCKVSNKALPAPIEKTISKAKGQPREPQVYTLPPSREEMTKNQVSLTCLVKGFYPSDIAVEWESNGQPENNYKTTPPVLDSDGSFFLYSKLTVDKSRWQQGNVFSCSVMHEALHNHYTQKSLSLSPGK
light: DIQMTQSPSSLSASVGDRVTITCKASQNINKHLDWYQQKPGKAPKLLIYFTNNLQTGVPSRFSGSGSGTDFTLTISSLQPEDFATYYCFQYNNGWTFGGGTKVEIKRTVAAPSVFIFPPSDEQLKSGTASVVCLLNNFYPREAKVQWKVDNALQSGNSQESVTEQDSKDSTYSLSSTLTLSKADYEKHKVYACEVTHQGLSSPVTKSFNRGEC
B3: IL33-153 (antibody, human IgG1, kappa, V domains shown)
VH: EVQLVESGGGLVQPGGSLRLSCAASGFTFSSYWMYWVRQAPGKGLEWVASITPNAGEDYYPDSVKGRFTISRDNAKNSLYLQMNSLRAEDTAVYYCARGHYYYTSYSLGYWGQGTLVTVSS
VL: DIQMTQSPSSLSASVGDRVTITCKASQNINKHLDWYQQKPGKAPKLLIYFTNNLQTGVPSRFSGSGSGTDFTLTISSLQPEDFATYYCFQYNQGWTFGGGTKVEIKR
B4: IL33-168 (antibody, human IgG1, kappa, V domains shown)
VH: EVQLVESGGGLVQPGGSLRLSCAASGFTFSSYWMYWVRQAPGKGLEWVASITPNAGEDYYPESVKGRFTISRDNAKNSLYLQMNSLRAEDTAVYYCARGHYYYTSYSLGYWGQGTLVTVSS
VL: DIQMTQSPSSLSASVGDRVTITCKASQNINKHLDWYQQKPGKAPKLLIYFTNNLQTGVPSRFSGSGSGTDFTLTISSLQPEDFATYYCFQYNNGWTFGGGTKVEIKR
B5: IL33-156 (antibody, human IgG1, kappa, V domains shown)
VH: EVQLVESGGGLVQPGGSLRLSCAASGFTFSSYWMYWVRQAPGKGLEWVAAITPNGGEDYYPESVKGRFTISRDNAKNSLYLQMNSLRAEDTAVYYCARGHYYYTSYSLGYWGQGTLVTVSS
VL: DIQMTQSPSSLSASVGDRVTITCKASQNINKHLDWYQQKPGKAPKLLIYFTNNLQTGVPSRFSGSGSGTDFTLTISSLQPEDFATYYCFQYNQGWTFGGGTKVEIKR
B6: IL33-171 (antibody, human IgG1, kappa, V domains shown)
VH: EVQLVESGGGLVQPGGSLRLSCAASGFTFSSYWMYWVRQAPGKGLEWVAAITPNAGEDYYPDSVKGRFTISRDNAKNSLYLQMNSLRAEDTAVYYCARGHYYYTSYSLGYWGQGTLVTVSS
VL: DIQMTQSPSSLSASVGDRVTITCKASQNINKHLDWYQQKPGKAPKLLIYFTNNLQTGVPSRFSGSGSGTDFTLTISSLQPEDFATYYCFQYNNGWTFGGGTKVEIKR
B7: IL33-154 (antibody, human IgG1, kappa, V domains shown)
VH: EVQLVESGGGLVQPGGSLRLSCAASGFTFSSYWMYWVRQAPGKGLEWVASITPNAGEDYYPESVKGRFTISRDNAKNSLYLQMNSLRAEDTAVYYCARGHYYYTSYSLGYWGQGTLVTVSS
VL: DIQMTQSPSSLSASVGDRVTITCKASQNINKHLDWYQQKPGKAPKLLIYFTNNLQTGVPSRFSGSGSGTDFTLTISSLQPEDFATYYCFQYNQGWTFGGGTKVEIKR
B8: IL33-155 (antibody, human IgG1, kappa, V domains shown)
VH: EVQLVESGGGLVQPGGSLRLSCAASGFTFSSYWMYWVRQAPGKGLEWVAAITPNGGEDYYPDSVKGRFTISRDNAKNSLYLQMNSLRAEDTAVYYCARGHYYYTSYSLGYWGQGTLVTVSS
VL: DIQMTQSPSSLSASVGDRVTITCKASQNINKHLDWYQQKPGKAPKLLIYFTNNLQTGVPSRFSGSGSGTDFTLTISSLQPEDFATYYCFQYNQGWTFGGGTKVEIKR
B9: IL33-172 (antibody, human IgG1, kappa, V domains shown)
VH: EVQLVESGGGLVQPGGSLRLSCAASGFTFSSYWMYWVRQAPGKGLEWVAAITPNAGEDYYPESVKGRFTISRDNAKNSLYLQMNSLRAEDTAVYYCARGHYYYTSYSLGYWGQGTLVTVSS
VL: DIQMTQSPSSLSASVGDRVTITCKASQNINKHLDWYQQKPGKAPKLLIYFTNNLQTGVPSRFSGSGSGTDFTLTISSLQPEDFATYYCFQYNNGWTFGGGTKVEIKR
B10: IL33-186 (antibody, human IgG1, kappa, V domains shown)
VH: EVQLVESGGGLVQPGGSLRLSCAASGFTFSSYWMYWVRQAPGKGLEWVAAITPNGGETYYPESVKGRFTISRDNAKNSLYLQMNSLRAEDTAVYYCARGHYYYTSYSLGYWGQGTLVTVSS
VL: DIQMTQSPSSLSASVGDRVTITCKASQNINKHLDWYQQKPGKAPKLLIYFTNNLQTGVPSRFSGSGSGTDFTLTISSLQPEDFATYYCFQYNQGWTFGGGTKVEIKR
B11: IL33-175 (antibody, human IgG1, kappa, V domains shown)
VH: EVQLVESGGGLVQPGGSLRLSCAASGFTFSSYWMYWVRQAPGKGLEWVAAITPNAGETYYPESVKGRFTISRDNAKNSLYLQMNSLRAEDTAVYYCARGHYYYTSYSLGYWGQGTLVTVSS
VL: DIQMTQSPSSLSASVGDRVTITCKASQNINKHLDWYQQKPGKAPKLLIYFTNNLQTGVPSRFSGSGSGTDFTLTISSLQPEDFATYYCFQYNNGWTFGGGTKVEIKR
B12: IL33-169 (antibody, human IgG1, kappa, V domains shown)
VH: EVQLVESGGGLVQPGGSLRLSCAASGFTFSSYWMYWVRQAPGKGLEWVAAITPNGGEDYYPDSVKGRFTISRDNAKNSLYLQMNSLRAEDTAVYYCARGHYYYTSYSLGYWGQGTLVTVSS
VL: DIQMTQSPSSLSASVGDRVTITCKASQNINKHLDWYQQKPGKAPKLLIYFTNNLQTGVPSRFSGSGSGTDFTLTISSLQPEDFATYYCFQYNNGWTFGGGTKVEIKR
B13: IL33-170 (antibody, human IgG1, kappa, V domains shown)
VH: EVQLVESGGGLVQPGGSLRLSCAASGFTFSSYWMYWVRQAPGKGLEWVAAITPNGGEDYYPESVKGRFTISRDNAKNSLYLQMNSLRAEDTAVYYCARGHYYYTSYSLGYWGQGTLVTVSS
VL: DIQMTQSPSSLSASVGDRVTITCKASQNINKHLDWYQQKPGKAPKLLIYFTNNLQTGVPSRFSGSGSGTDFTLTISSLQPEDFATYYCFQYNNGWTFGGGTKVEIKR
B14: IL33-157 (antibody, human IgG1, kappa, V domains shown)
VH: EVQLVESGGGLVQPGGSLRLSCAASGFTFSSYWMYWVRQAPGKGLEWVAAITPNAGEDYYPDSVKGRFTISRDNAKNSLYLQMNSLRAEDTAVYYCARGHYYYTSYSLGYWGQGTLVTVSS
VL: DIQMTQSPSSLSASVGDRVTITCKASQNINKHLDWYQQKPGKAPKLLIYFTNNLQTGVPSRFSGSGSGTDFTLTISSLQPEDFATYYCFQYNQGWTFGGGTKVEIKR

Columns and labels:
human IL-33 (mm2) = molecular target: T1, human IL-33 (mm2); experiment: cell-based or functional assay
[1] = molecular target: T2, cynomolgus monkey IL-33 (cys mut); experiment: cell-based or functional assay

| Binder | IC50, HEK293 ST2 NFkB (human IL-33 (mm2)) | IC50, PBMC mm2 (human IL-33 (mm2)) | IC50, whole blood mm2 (human IL-33 (mm2)) | IC50, HEK293 ST2 NFkB cyno IL-33 [1] |
| --- | --- | --- | --- | --- |
| B1 | 0.131 nM | 0.004 nM | 0.007 nM | 0.125 nM |
| B2 | 0.049 nM | 0.001 nM | 0.008 nM | 0.062 nM |
| B3 | 0.087 nM | – | 0.014 nM | 0.122 nM |
| B4 | 0.109 nM | – | 0.014 nM | 0.264 nM |
| B5 | 0.116 nM | 0.004 nM | 0.004 nM | 0.087 nM |
| B6 | 0.145 nM | – | 0.012 nM | 0.216 nM |
| B7 | 0.188 nM | 0.007 nM | 0.01 nM | 0.133 nM |
| B8 | 0.171 nM | – | 0.025 nM | 0.239 nM |
| B9 | 0.201 nM | – | 0.012 nM | 0.222 nM |
| B10 | 0.109 nM | – | 0.012 nM | 0.144 nM |
| B11 | 0.059 nM | 0.004 nM | 0.006 nM | 0.086 nM |
| B12 | 0.071 nM | – | 0.009 nM | 0.176 nM |
| B13 | 0.176 nM | – | 0.005 nM | 0.218 nM |
| B14 | 0.118 nM | – | 0.016 nM | 0.161 nM |
